Drawing on article PMC2704239, this text covers co-IP of Tdrd1 as percent of full-length Mili, binding as percent of the wildtype level and fold weaker interaction than with Tdrd1 for two molecules.

Common to all, as to experiment: co-IP
Assay [1] has as its target FLAG-tagged Mili N-terminal domain (mouse).
Assay [2] addresses FLAG-tagged Mili region containing the PAZ, Mid, and Piwi domains (mouse).
The next assay concerns the target T1, myc-tagged Tdrd2, Q80VL1.
T1 chain: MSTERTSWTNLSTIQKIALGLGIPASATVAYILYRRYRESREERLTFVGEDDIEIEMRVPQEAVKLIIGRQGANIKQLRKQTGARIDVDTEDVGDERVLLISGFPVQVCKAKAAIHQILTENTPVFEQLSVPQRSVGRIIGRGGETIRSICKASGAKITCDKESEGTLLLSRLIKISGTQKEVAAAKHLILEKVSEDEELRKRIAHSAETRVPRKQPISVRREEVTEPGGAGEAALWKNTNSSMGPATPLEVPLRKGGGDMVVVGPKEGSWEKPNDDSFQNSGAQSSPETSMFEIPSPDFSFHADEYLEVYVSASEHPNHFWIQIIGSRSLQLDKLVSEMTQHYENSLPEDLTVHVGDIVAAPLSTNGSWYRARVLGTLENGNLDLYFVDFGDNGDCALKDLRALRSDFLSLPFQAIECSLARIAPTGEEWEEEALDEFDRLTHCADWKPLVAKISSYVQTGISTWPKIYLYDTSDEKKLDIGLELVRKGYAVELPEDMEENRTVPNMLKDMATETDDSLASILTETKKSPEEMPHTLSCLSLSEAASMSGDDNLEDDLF
Conditions: remark: other sources report otherwise.

B1: myc-tagged Tdrd1 (natural protein)
chain: MMPRNNLEASTCKMAEPFNFEKKESKPPPQDPLRSPVAQHNHPTFRLKSPENGNTKNNFLLCEQNKQYLASQEDSSVVSSNPAVVNGEVGGSKGDRKPPPTGNPVSPLSLGNSSPPNQVKTKPSSNVTPEKSKKSHKLFENALSVNNPALFNSLGPPLRSTTCHRCGLFGSLRCSQCKQTYYCSTACQRRDWSSHSTICRPVQQSLNKLEDNKSPFETKAIEVKSEVDCPPGVTKEITAGAERVMFSDLRSLQLKKTMEIKGTVTEFKHPSNFYIQLYSSEVLENMNQLSTSLKETYANVVPEDGYLPVKGEVCVAKYTVDQTWNRAIVQAVDVLQRKAHVLYIDYGNEEMIPIDSVHPLSRGLDLFPPSAIKCCVSGVIPTAGEWSEGCVAAVKALLFEQFCSVKVMDILEEEVLTCAVDLVLQSSGKQLDHVLVEMGYGVKPGEQSSTEQSVDHSALEDVGRVTVESKIVTDRNALIPKVLTLNVGDEFCGVVAHIQTPEDFFCQQLQSGHKLAELQESLSEYCGHVIPRSDFYPTIGDVCCAQFSEDDQWYRASVLAYASEESVLVGYVDYGNFEILSLKRLCPIIPKLLDLPMQALNCVLAGVKPSLGIWTPEAVCVMKEMVQNRMVTVRVVGMLGTRALVELIDKSVAPHVSASKALIDSGFAIKEKDVADKGSSMHTASVPLAIEGPAEALEWTWVEFTVDETVDVVVCMMYSPGEFYCHFLKDDALEKLDDLNQSLADYCAQKPPNGFKAEIGRPCCAFFSGDGNWYRALVKEILPSGNVKVHFVDYGNVEEVTTDQLQAILPQFLLLPFQGMQCWLVDIQPPNKHWTKEATARFQACVVGLKLQARVVEITANGVGVELTDLSTPYPKIISDVLIREQLVLRCGSPQDSLMSRPANQHKQIDSHRVQASPSAEQWKTMELPVNKTIAANVLEIISPALFYAIPSEMSENQEKLCVLAAELLEHCNAQKGQPAYRPRTGDACCAKYTNDDFWYRAIVLETSESDVKVLYADYGNIETLPLSRVQPIPASHLELPFQIIRCSLEGPMELNGSCSQLVMELLRNAMLNQSVVLSVKAISKNVHAVSVEKCSENGMINIAENLVMCGLAENLTSKRKSASTKEIPHSRDCCCTELQKQIEKHEQILLFLLNNPTNQSKFTEMKKLLRS
In turn, B1 returned a co-IP of Tdrd1 as percent of full-length Mili in assay [1] of 76%. In addition, the binding as percent of the wildtype level in assay [2] was determined as 11%.

B2: FLAG-tagged Mili, Q8CDG1 1-971 (natural protein)
chain: MDPVRPLFRGPTPVHPSQCVRMPGCWPQAPRPLEPAWGRAGPAGRGLVFRKPEDSSPPLQPVQKDSVGLVSMFRGMGLDTAFRPPSKREVPPLGRGVLGRGLSANMVRKDREEPRSSLPDPSVLAAGDSKLAEASVGWSRMLGRGSSEVSLLPLGRAASSIGRGMDKPPSAFGLTARDPPRLPQPPALSPTSLHSADPPPVLTMERKEKELLVKQGSKGTPQSLGLNLIKIQCHNEAVYQYHVTFSPSVECKSMRFGMLKDHQSVTGNVTAFDGSILYLPVKLQQVVELKSQRKTDDAEISIKIQLTKILEPCSDLCIPFYNVVFRRVMKLLDMKLVGRNFYDPTSAMVLQQHRLQIWPGYAASIRRTDGGLFLLADVSHKVIRNDSVLDVMHAIYQQNKEHFQDECSKLLVGSIVITRYNNRTYRIDDVDWNKTPKDSFVMSDGKEITFLEYYSKNYGITVKEDDQPLLIHRPSERQNNHGMLLKGEILLLPELSFMTGIPEKMKKDFRAMKDLTQQINLSPKQHHGALECLLQRISQNETASNELTRWGLSLHKDVHKIEGRLLPMERINLRNTSFVTSEDLNWVKEVTRDASILTIPMHFWALFYPKRAMDQARELVNMLEKIAGPIGMRISPPAWVELKDDRIETYIRTIQSLLGVEGKIQMVVCIIMGTRDDLYGAIKKLCCVQSPVPSQVINVRTIGQPTRLRSVAQKILLQMNCKLGGELWGVDIPLKQLMVIGMDVYHDPSRGMRSVVGFVASINLTLTKWYSRVVFQMPHQEIVDSLKLCLVGSLKKYYEVNHCLPEKIVVYRDGVSDGQLKTVANYEIPQLQKCFEAFDNYHPKMVVFVVQKKISTNLYLAAPDHFVTPSPGTVVDHTITSCEWVDFYLLAHHVRQGCGIPTHYICVLNTANLSPDHMQRLTFKLCHMYWNWPGTIRVPAPCKYAHKLAFLSGQILHHEPAIQLCGNLFFL
In the assay with myc-tagged Tdrd2, Q80VL1, B2 returned a fold weaker interaction than with Tdrd1 of 20 fold.
